{
  "source": "the DeepSol protein solubility set",
  "data": [
    {"assay": "soluble on expression in E. coli; label from the status in PepcDB or PDB records", "values": [
      {"sequence": "MGSDKIHHHHHHMPPPVRVNWPRMRTTRRQTVTTWVGNVPVGSSHPIVVQSMTNTDTANAEATALQVAQLARAGSEIVRVTVNTREAAAALPEIVARLHDLGLDVPLVGDFHYNGHLLLREYPETARLLAKYRINPGNVGAGQHHDANFATMIEVAKTYGKPVRIGVNWGSLDQQVLARLMDENARRGSPKSGTDVMIDAMVTSALESAAYAEGLGLPHDRIIISVKVSSAPELWQVYRQLAPLCDYPLHLGLTEAGMGMKGMVASSVALAPLLSEGIGDTIRVSLTPEPGAPRKLEVEVAQQILQSLGLRQFLPQVTSCPGCGRTTSTFFQELARKIQDYIRDAMPEWKAKYPGVEDMQVAVMGCIVNGPGESKHANIGISLPGTGEDPRAPVYQDGKLLTTLKGPRIAEDFQELLEKYVEERYGHKSAHTTVQE", "soluble on expression in E. coli": "not soluble"},
      {"sequence": "MQPTPSEYARTPVRIEMQRSKERNSMVYKEMYNDAQRKYSEALDRISKLTDAYLREKAEVENFIKIKDREVEMSKKNANEKLLKDFLPVLDSIDAAIQAEKDNNLIRIRDQMLGVLSRYGLKPIKAEGSKFDPYLHEVVGVTADGEDGMVKYEVQRGYTLNDGVLRTSKVIVVKR", "soluble on expression in E. coli": "not soluble"},
      {"sequence": "MRYDVSSNSLYVFCSIVLFSDLRFRIGGKYMAERHMFLKKDPSKENSIIVSNIPAFVGEGVVLAIIDQFASFEVEESFVQRSNTADNSLSQGQLTMSITFDKPEAVIQTLALCQDVGPFTITDFLEDPEFPSVLKDSTTLYRKLFPSEEQIQEMADTYVERYDTEQTEARKEAKRKYSEPDEDGWITVTKAKKAAKSVKLKKEDVPLIGGLNNKKKKVDLAYYTFQIKKNRQEKAQELLKKFEEDRKRITQLKQARNFKPI", "soluble on expression in E. coli": "not soluble"},
      {"sequence": "SADSEADKPLRKISAAFKKLAIIVNSPNPEVPVTQFSHACSLVSPLFGCLGIAFKFAEMDYVAKVDDLVRASSSISTLVVMMDKDIEADCVRKAGSHTRNLLRVKRGLDMVKVLFEQIIASEGDNSLKDPATKSYAQVFAPHHGWAIRKAVSLGMYALPTRAHLLNMLKEDEAAAKIHMQSYVNSSAPLITYLDNLFLSKQLGIDW", "soluble on expression in E. coli": "soluble"},
      {"sequence": "LHRYSEVLGLPVICTADGKNLGTIKDIIFCPKEKSVVAFLIECKGYNRRKKVVFASDVLSLGRDALIVNDADDVRDLKKVLHRPEFKDKGDILGLPIYTKNGEDLGTAKDVLFDLKHGKIDGIEVSDGLLQDIVKGRSVLPLIGKVEFGEENILVDNEAVEEMMETGGGIKNLIEGNKKVQRKG", "soluble on expression in E. coli": "not soluble"},
      {"sequence": "MSLAQIKSLFATRLYHAPLSEHGPALDPAEFAASCYSIAEDDDAGQEWCEREGYPGYTSYASLTDLPWRFPIFADLVKSLDAHVAAFAEDLEFELDGKALRLEDIWINILPEGGVHGSHIHPHSVISGTTYVAMPEGTSALKLEDPRLPFMMAAPTRRKGAREELRTFRSVAPKVGDVLLWESWLRHEVPMNMAEEDRISVSFNYAWGEGHHHHHH", "soluble on expression in E. coli": "soluble"},
      {"sequence": "MKQSLFGRVRDAILADFHNVLDEKERKNPIAMLNQYLRDSEREITKIEKLIERHKTLKSNFARELEQARYFVNKRSKQAIIAQEADELQLHERALEEVAYYEGQVTRLEEMYAGVVEQIDELERRLSEMKNKLKEMHAKRMELMARENMAHANRRMNTAMHKMDENNPFLRFEEIEDHIRDLETRMNEEHERDTFDMKIAKLEREMKEKNDVSLTKELTKLEHHHHHH", "soluble on expression in E. coli": "soluble"},
      {"sequence": "MPPKKDPKGGKAPPSKKKEGSGGGKAKKKKWSKGKVRDKLNNMVLFDQATYDKLYKEVITYKLITPSVVSERLKVRASLAKAGLKELQAKGLVKCVVHHHGQVVYTRATKEADVIVE", "soluble on expression in E. coli": "soluble"},
      {"sequence": "MAANSLPQDISDVELVHLARAAMKRAHCPYSKFPVGAALLTESGEIVQGCNVENASYGGTICAERSAIVSAVSQGYTKFRAIAVVTELSEPASPCGLCRQFLVEFGDYKVVVGTASNNKILITSTRALLPFAFTPESLDTFEQEKASEAKGLKQDDATEHNVTVVS", "soluble on expression in E. coli": "not soluble"},
      {"sequence": "MLVVLAISLAVTAVCAQYGSGPANNPPASSYSSNVYYPPPVYGSVYWDYDSGSREHRHKQCPRLRAYVGEFPGIPEEAFYPPIIRYVKYNRKVTALVVCDRDEKNLNFLFARHNKTRDVRSASVVAIGSTAGVTLVCNRDDRRYEGFVIDMNATTNGFSKKIEITQLTCLGLDKTIIGLPVEHGVQQLAQKIQEILEDDFFVPVIPSRRKRQAGGATANSAESTTEAADTESTTEAAATETPAAESTTTEASATDAAATEASATDAAATEGAVTKAAAGVTEESATEVITVATTPASPDAALNNAINELGKILGQVF", "soluble on expression in E. coli": "not soluble"},
      {"sequence": "MYAVTFDLDTNCLNENAVNLSKVYSDIRKFMEQHGFKWQQGSVYFGDETINAVTCVATVQILAKQIPSFAVCVKDVRMLKIEENNDLMPAIKIVL", "soluble on expression in E. coli": "not soluble"},
      {"sequence": "MGSDKIHHHHHHMKVLVAMDEFHGIISSYQANRYVEEAVASQIETADVVQVPLFNGRHELLDSVFLWQSGQKYRIPVHDADMNEVEGVYGQTDTGMTVIEGNLFLKGKKPIVERTSYGLGEMIKHALDNDAKHVVISLGGIDSFDAGAGMLQALGAQFYDDEGRVVDMRQGAGVIKYIRRMDMSNLHPKMETARIQVMSDFSSRLYGKQSEIMQTYDAHQLNHNQAAEIDNLIWYFSELFKSELKIAIGPVERGGAGGGIAAVLNGLYQAEILTSHALVDQLTHLENLVEQADLIIFGEGLNENDQLLETTTLRIAELCHKHQKVAIAICATAEKFDLFESQGVTAMFNTFIDMPETYTDFKMGLQIRHYTVQSLKLLKTHFNVEV", "soluble on expression in E. coli": "not soluble"},
      {"sequence": "SSENLDKSNVNEAGKSKSNDSEEGLEDAVEGADEALQKAIKSDSSSPQRVQRPHSSPPRFVTVEELLETARGVTNMALAHEIVVNGDFQIKPVELPENSLKKRVKEIVHKAFWDCLSVQLSEDPPAYDHAIKLVGEIKETLLSFLLPGHTRLRNQITEVLDLDLIKQEAENGALDISRLAEFIIGMMGTLCAPARDEEVKKLKDIKEIVPLFREIFSVLDLMKVDMANFAISSIRPHLMQQSVEYERKKFQEILERQPNSLDFVTQWLEEASEDLMTQKYKHALPVGGMAAGSGDMPRLSPVAVQNYAYLKLLKWDHLQRPFPETVLMDQSRFHELQLQLEQLTILGAVLLVTFSMAAPGISSQADFAEKLKMIVKILLTDMHLPSFHLKDVLTTIGEKVCLEVSSCLSLCGSSPFTTDKETVLKGQIQAVASPDDPIRRIMESRILTFLETYLASGHQKPLPTVPGGLSPVQRELEEVAIKFARLVNYNKMVFCPYYDAILSKILVRS", "soluble on expression in E. coli": "soluble"},
      {"sequence": "MKTIGLLGGMSWESTIPYYRLINEGVKARLGGLHSASLVLHSVDFHDIEACQSAGDWDRAGEILAEAAVGLQQAGAEGIVLCTNTMHKVADAIAARCQVPFLHIADATGRAIAAKGQRRVALLGTRYTMEQTFYRGRLQEQFAIETLIPEADDRAQINQIIFDELCLGTFSEASRDYYLQTIAALAEQGAEGVIFGCTEIGLLVPAELSPLPVFDTAAIHAEDAVNFMLSAGPTPAA", "soluble on expression in E. coli": "not soluble"},
      {"sequence": "MQLFHKTVNRRGTHSIKWDTYKNEELIHAWIADMDFEVPQPIQTALKKRIEHPIFGYTLPPENIGDIICNWTKKQYNWDIQKEWIVFSAGIVPALSTSIQAFTKENESVLVQPPIYPPFFEMVTTNNRQLCVSPLQKQNDTYAIDFEHLEKQFQQGVKLMLLCSPHNPIGRVWKKEELTKLGSLCTKYNVIVVADEIHSDIIYADHTHTPFASLSEELAARTITCMAPSKTFNIAGLQASIIIIPNEKLRQAFTSIQYRQGFHGLNIFAYTAMQSAYTECNDWLNEIRFYIEDNAKFACEYIKDHIPTLSVMKPEGSFLLWIDCSALNLSQDERTKLLEEKGKIIVEPGEKYGLGGEEHIGINIGCPRSVLEEILNRLRHTFS", "soluble on expression in E. coli": "soluble"},
      {"sequence": "GSASAQSRTLAGGIHATDLNDKSVQRALDFAISEYNKVINKDEYYSRPLQVMAAYQQIVGGVNYYFNVKFGRTTCTKSQPNLDNCPFNDQPKLKEEEFCSFQINEVPWEDKISILNYKCRKV", "soluble on expression in E. coli": "soluble"},
      {"sequence": "STVLDSLQHTGRGDKVYWFCYGMKCYYFVMDRKTWSGCKQTCQSSSLSLLKIDDEDELKFLQLVVPSDSCWVGLSYDNKKKDWAWIDNRPSKLALNTRKYNIRDGGCMLLSKTRLDNGNCDQVFICICGKRLDKFPH", "soluble on expression in E. coli": "soluble"},
      {"sequence": "MGHHHHHHSHSMGVRSMATFVKTADVSILIDPGVSLAPKRYRLPPHRIEIERMNQKWEEIKEMMKKAEVAIITHYHYDHHDPNEVEIFSGKKLLLKHPTEKINRSQKGRAAYFLEQLKSVDVEIDYCDGKSYEFGNTVVELSKPVFHGADSRLGFVVEVYVEDGKSSFLFSSDVEGPNNEEQLAFMLEKSAEVVFIDGPMTYMLGYRFSQKSFESSVENLKRLIAEDVKTLVLDH", "soluble on expression in E. coli": "soluble"},
      {"sequence": "MLLSNEEFLKKLTDLLQTHQSKGTGSVYLSQKCNPVDEGEGSSASVLIRAKSGAAEKISTVVELDYFTDFFQSYAEVCKGQIVGLKKRDRK", "soluble on expression in E. coli": "soluble"},
      {"sequence": "MGSDKIHHHHHHVKFRVDRDAFADAVTWTARALPARPAVPVLAGMRLEVADTASDTLRLSGFDYEVSAQASVDVHAEEAGSVLVPGRLLAEIVRTLPPHPVEFHVEGSRALLTCGNARFTLLTLPLEDYPTLPAMPRTIGSAPADVFATAVRQVLPSTSRDDTLPMLTGVHLTFRGDTILLAATDRYRIAVREMWWKPEEVDIDTSALVPARTLGDFSRSLTGGNVDIALSTSDSRGAGEGMIGFEHDGKRTTTRLIDSDFVSYESRFPTEFAAQADVPVAPLAEAVKRVALVADRSTPVRLSFTSSEVVLEAGSGDDAQALEALEVNFEGEPMRIAFNPQYFLDGLTNVETERAFLRFVAPTRPAVITGTPAKEGGKPDFRYLVMPLRLA", "soluble on expression in E. coli": "not soluble"},
      {"sequence": "MVFLDPIHRIDVVTLSELSRLGFRRSGDFVYRPECHLCRQCLSCRVPVADFQMNSMQKKAWKRNQDLTMTVLPTRQASQIHYDLYERYINERHADGDMFPPSLDQFEKFLVHSCTDSFFLELWKDNRLISVSTCDLMDDGLSAVYTFFDPDEHRRSLGVYSILNQIEYVKTLGLEYVYLGYWVPHSAKMNYKSQYTPLELLLDGQWRRLNRSLSPEEINQLGNSLMTTLPSEWNNLIIKLEHHHHHH", "soluble on expression in E. coli": "not soluble"},
      {"sequence": "MRTIPPDDVYISSTLPFEETTTEMMTTMETSTMTEKVCPEMPATTCMDLIKLGAKLELAEVDGCQVVQCTGGQIPRLITRNSVFSPKLYAGLSDATIVFPVPPTTLAGFGGKSFFDYYGLICDTFNGNFYWTMTKYPDGLIDLGGGQPILGSDGSYDGKQAPIEQVDCQEPK", "soluble on expression in E. coli": "not soluble"},
      {"sequence": "MSLKRITMQDIADRLNISKNSVSQALRGKEGVSKETRELVKRVAKEMGYEYPASRAKSRGKPPRQIALIASDRTFSLKFFGEIYLSIEQEALSHGMKLHIQSVNKEQKERLLLPSFIEEKQVDGVIVLSHISTEYIQQIVATGIPTVLVDHHHPNIPADAVLTNNRFGAYVAVQHLLELNHTDIAFVGDVNYSPSYQERYEGYLLALKDYGVKPNEEWMFCQAQEDETVIAGYIRELKRQPTAWFCVNDGLGFFVSTGLQQYGLKVPDDVSVCSFDNGQLSQIATPKITTVDIDLKRYGKRAVELLRWRWDNPNEPFQEVLLSTKLIKRESTAAKPTREGHHHHHH", "soluble on expression in E. coli": "soluble"},
      {"sequence": "SDERDVLWVGVCAMPKKVESEPMQRILAALTSSRVAHFEPMIFDAKTLFERPIHKWPVCDALIAFHSEGFPLERAIAYAELRRPYCLNGLREQRMLLDRSKVYEVLARERVPVPRHIVVRHDGADVGRTDTRFVEHDDYIEYCGERLFKPFVEKPIDAEDHRVCIYYARPLYGRRRLFRKTANQSSVFEPGWRRVRREGAFIYEEFIPSEHQSDIKVYAVGPEYAYAERRKSPVVDGIVERNAHGKELRFPVELSTAERCVAATITAAFRQFVCGFDLIRHADGNAFYVNDVNGFSFVKGSQSYYESCGRILAEHLARECARSAAVDGE", "soluble on expression in E. coli": "soluble"}
    ]}
  ]
}
